How the values were obtained:
[1] = target: T1, cynomolgus soluble urokinase plasminogen activator receptor (suPAR) (cynomolgus, UniProt Q9GK78 23-303, limits assumed); assay: off-rate (kdis) screen of scFv clones, biosensor (Octet)
T1 construct: Target antigen of the off-rate screen; also called cynomolgus uPAR; cynomolgus suPAR

[2] = target: T2, human soluble urokinase plasminogen activator receptor (suPAR) (human, UniProt Q03405 23-303, limits assumed); assay: as above
T2 construct: Target antigen of the off-rate screen; also called hsuPAR; human suPAR
T2 sequence (Q03405 23-303 limits assumed): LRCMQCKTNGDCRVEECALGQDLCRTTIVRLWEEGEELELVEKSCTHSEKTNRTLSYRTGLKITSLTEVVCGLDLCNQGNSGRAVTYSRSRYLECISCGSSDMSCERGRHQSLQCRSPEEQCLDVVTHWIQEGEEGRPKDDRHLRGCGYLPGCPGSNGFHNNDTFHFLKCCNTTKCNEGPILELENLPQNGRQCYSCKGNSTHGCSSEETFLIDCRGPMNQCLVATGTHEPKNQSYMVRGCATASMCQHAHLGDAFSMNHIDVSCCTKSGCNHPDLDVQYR

T1 sequence (Q9GK78 23-303 limits assumed): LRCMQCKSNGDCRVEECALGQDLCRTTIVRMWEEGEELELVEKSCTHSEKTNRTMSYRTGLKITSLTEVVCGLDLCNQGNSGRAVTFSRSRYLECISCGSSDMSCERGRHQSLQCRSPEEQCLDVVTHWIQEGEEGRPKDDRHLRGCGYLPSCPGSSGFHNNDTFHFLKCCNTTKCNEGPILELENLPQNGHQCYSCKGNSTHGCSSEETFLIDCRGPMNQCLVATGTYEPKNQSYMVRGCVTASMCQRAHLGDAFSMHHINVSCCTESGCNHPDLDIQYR

Row | Binder | koff [1] [s⁻¹] | koff [2] [s⁻¹]
1 | suPAR_DB01_A07 (scFv, V domains shown, screened as scFv) VH: QVQLVQSGAEVKKPGASVKVSCKASGGTFTSYYMHWVRQAPGQGLEWMGWIDHENGSTSYDQKFQGRVTMTRDTSTSTVYMELSSLRSEDTAVYYCARGYDVDWFVYWGQGTLVTVSS VL: DIQMTQSPSSLSASVGDRVTITCSARSSVSYMYWYQQKPGKAPKLLIYRTSNLASGVPSRFSGSGSGTDFTLTISSLQPEDFATYYCQQYHSYPPTFGGGTKVEIK | 0.00156 | 0.00571
2 | suPAR_DB01_A10 (scFv, V domains shown, screened as scFv) VH: QVQLVQSGAEVKKPGASVKVSCKASGYTFSNYYMHWVRQAPGQGLEWMGWIDHENGNTIYDQKFQGRVTMTRDTSTSTVYMELSSLRSEDTAVYYCARGYDVDWFVYWGQGTLVTVSS VL: DIQMTQSPSSLSASVGDRVTITCSARSSVSYMYWYQQKPGKAPKLLIYRTSNLASGVPSRFSGSGSGTDFTLTISSLQPEDFATYYCQQYHSYPPTFGGGTKVEIK | 0.000299 | 0.00194
3 | suPAR_DB01_A12 (scFv, V domains shown, screened as scFv) VH: QVQLVQSGAEVKKPGASVKVSCKASGYTFTGYYMHWVRQAPGQGLEWMGWIDPEGGNTIYAQKFQGRVTMTRDTSTSTVYMELSSLRSEDTAVYYCARGYDVDWFVYWGQGTLVTVSS VL: DIQMTQSPSSLSASVGDRVTITCSARSSVSYMYWYQQKPGKAPKLLIYRTSNLASGVPSRFSGSGSGTDFTLTISSLQPEDFATYYCQQYHSYPPTFGGGTKVEIK | 0.000142 | 0.00128
4 | suPAR_DB01_B02 (scFv, V domains shown, screened as scFv) VH: QVQLVQSGAEVKKPGASVKVSCKASGYTFTNYYMHWVRQAPGQGLEWMGWIDHENGNTIYDQKFQGRVTMTRDTSTSTVYMELSSLRSEDTAVYYCARGYDVDWFVYWGQGTLVTVSS VL: DIQMTQSPSSLSASVGDRVTITCSARSSVSYMYWYQQKPGKAPKLLIYRTSNLASGVPSRFSGSGSGTDFTLTISSLQPEDFATYYCQQYHSYPPTFGGGTKVEIK | 0.000177 | 0.00142
5 | suPAR_DB01_A11 (scFv, V domains shown, screened as scFv) VH: QVQLVQSGAEVKKPGASVKVSCKASGYTFTNYYMHWVRQAPGQGLEWMGWIDHENGNTIYDQKFQGRVTMTRDTSTSTVYMELSSLRSEDTAVYYCARGYDVDWFVYWGQGTLVTVSS VL: DIQMTQSPSSLSASVGDRVTITCSASQSVSYMYWYQQKPGKAPKLLIYRTSNLASGVPSRFSGSGSGTDFTLTISSLQPEDFATYYCQQYHSYPPTFGGGTKVEIK | 0.000479 | 0.0015
6 | suPAR_DB01_B01 (scFv, V domains shown, screened as scFv) VH: QVQLVQSGAEVKKPGASVKVSCKASGYTFTDYYMHWVRQAPGQGLEWMGWIDHENGNTIYDQKFQGRVTMTRDTSTSTVYMELSSLRSEDTAVYYCARGYDVDWFVYWGQGTLVTVSS VL: DIQMTQSPSSLSASVGDRVTITCSASQSVSYMYWYQQKPGKAPKLLIYRTSNLASGVPSRFSGSGSGTDFTLTISSLQPEDFATYYCQQYHSYPPTFGGGTKVEIK | 4.88e-07 | 0.0028
7 | suPAR_DB01_B03 (scFv, V domains shown, screened as scFv) VH: QVQLVQSGAEVKKPGASVKVSCKASGFNIKDYYIHWVRQAPGQGLEWMGWIDPENGNTIYAQKFQGRVTMTRDTSTSTVYMELSSLRSEDTAVYYCARGYDVDWFVYWGQGTLVTVSS VL: DIQMTQSPSSLSASVGDRVTITCRASSSVSYMYWYQQKPGKAPKLLIYRTSNLASGVPSRFSGSGSGTDFTLTISSLQPEDFATYYCQQYHSYPPTFGGGTKVEIK | 3.5e-07 | 0.00329

Other lines, results leading:

Row | koff [1] [s⁻¹] | koff [2] [s⁻¹] | Binder
8 | 0.00108 | 0.00105 | suPAR_DB01_B10 (scFv, V domains shown, screened as scFv) VH: QVQLVQSGAEVKKPGASVKVSCKASGYTFSSYYMHWVRQAPGQGLEWMGWIDPENGSTIYDQKFQGRVTMTRDTSTSTVYMELSSLRSEDTAVYYCARGYDVDWFVYWGQGTLVTVSS VL: DIQMTQSPSSLSASVGDRVTITCSARQSVSSMYWYQQKPGKAPKLLIYRTSNLASGVPSRFSGSGSGTDFTLTISSLQPEDFATYYCQQYHSYPPTFGGGTKVEIK
9 | 0.000181 | 0.00407 | suPAR_DB01_B05 (scFv, V domains shown, screened as scFv) VH: QVQLVQSGAEVKKPGASVKVSCKASGYTFTNYYMHWVRQAPGQGLEWMGWIDPENGNTIYDQKFQGRVTMTRDTSTSTVYMELSSLRSEDTAVYYCARGYDVDWFVYWGQGTLVTVSS VL: DIQMTQSPSSLSASVGDRVTITCRASSSVSYMYWYQQKPGKAPKLLIYRTSNLASGVPSRFSGSGSGTDFTLTISSLQPEDFATYYCQQYHSYPPTFGGGTKVEIK
10 | 0.000238 | 0.00298 | suPAR_DB01_B12 (scFv, V domains shown, screened as scFv) VH: QVQLVQSGAEVKKPGASVKVSCKASGYTFTSYYMHWVRQAPGQGLEWMGWIDPENGNTIYDQKFQGRVTMTRDTSTSTVYMELSSLRSEDTAVYYCARGYDVDWFVYWGQGTLVTVSS VL: DIQMTQSPSSLSASVGDRVTITCSARSSVSYMYWYQQKPGKAPKLLIYRTSNLASGVPSRFSGSGSGTDFTLTISSLQPEDFATYYCQQYHSYPPTFGGGTKVEIK
11 | 8.48e-05 | 0.00206 | suPAR_DB01_B04 (scFv, V domains shown, screened as scFv) VH: QVQLVQSGAEVKKPGASVKVSCKASGYTFTSYYMHWVRQAPGQGLEWMGWIDHENGNTIYDQKFQGRVTMTRDTSTSTVYMELSSLRSEDTAVYYCARGYDVDWFVYWGQGTLVTVSS VL: DIQMTQSPSSLSASVGDRVTITCSASSSVSYMYWYQQKPGKAPKLLIYRTSNLASGVPSRFSGSGSGTDFTLTISSLQPEDFATYYCQQYHSYPPTFGGGTKVEIK
12 | 0.000211 | 0.00371 | suPAR_DB01_B08 (scFv, V domains shown, screened as scFv) VH: QVQLVQSGAEVKKPGASVKVSCKASGYTFTGYYMHWVRQAPGQGLEWMGWIDPENGSTIYDQKFQGRVTMTRDTSTSTVYMELSSLRSEDTAVYYCARGYDVDWFVYWGQGTLVTVSS VL: DIQMTQSPSSLSASVGDRVTITCSARSSVSYMYWYQQKPGKAPKLLIYRTSNLASGVPSRFSGSGSGTDFTLTISSLQPEDFATYYCQQYHSYPPTFGGGTKVEIK
13 | 8.79e-05 | 0.00273 | suPAR_DB01_B11 (scFv, V domains shown, screened as scFv) VH: QVQLVQSGAEVKKPGASVKVSCKASGYTFTDYYMHWVRQAPGQGLEWMGWIDHENGSTSYDQKFQGRVTMTRDTSTSTVYMELSSLRSEDTAVYYCARGYDVDWFVYWGQGTLVTVSS VL: DIQMTQSPSSLSASVGDRVTITCSARSSVSYMYWYQQKPGKAPKLLIYRTSNLASGVPSRFSGSGSGTDFTLTISSLQPEDFATYYCQQYHSYPPTFGGGTKVEIK
14 | 0.000234 | 0.00353 | suPAR_DB01_C02 (scFv, V domains shown, screened as scFv) VH: QVQLVQSGAEVKKPGASVKVSCKASGYTFNTYYMHWVRQAPGQGLEWMGWIDPENGNTIYDQKFQGRVTMTRDTSTSTVYMELSSLRSEDTAVYYCARGYDVDWFVYWGQGTLVTVSS VL: DIQMTQSPSSLSASVGDRVTITCSASSSVSYMYWYQQKPGKAPKLLIYRTSSLQSGVPSRFSGSGSGTDFTLTISSLQPEDFATYYCQQYHSYPPTFGGGTKVEIK
15 | 5.62e-07 | 0.00348 | suPAR_DB01_B06 (scFv, V domains shown, screened as scFv) VH: QVQLVQSGAEVKKPGASVKVSCKASGYTFTDYYMHWVRQAPGQGLEWMGWIDHENGNTIYDQKFQGRVTMTRDTSTSTVYMELSSLRSEDTAVYYCARGYDVDWFVYWGQGTLVTVSS VL: DIQMTQSPSSLSASVGDRVTITCRARSSVSYMYWYQQKPGKAPKLLIYRTSNLASGVPSRFSGSGSGTDFTLTISSLQPEDFATYYCQQYHSYPPTFGGGTKVEIK

Reference: patent US20250215104A1 (WALDEN BIOSCIENCES, published 2025)
